Test results taken from the nanobody polyreactivity screen of Harvey et al. (2022).

Assay: yeast display, Sf9 membrane polyspecificity reagent, FACS + sequencing; frameworks hold sequencing errors
How it was run: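 Synthetic nanobody libraries on Saccharomyces cerevisiae BJ5465 were galactose-induced for 36–48 hours, stained 1 hour at 4 °C with 10% biotinylated, detergent-solubilized Sf9 membrane reagent and enriched on streptavidin microbeads. FACS then separated cells into low and high (top ~1%) gates by anti-HA (expression) and streptavidin (reagent binding) fluorescence. Genes were colony-PCR amplified, MiSeq 2 × 250 sequenced and CDR-length filtered. A clone's polyreactivity label is that of its gate of origin.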

Row | Sequence | polyreactivity (PSR sort gate)
1 | QVQLVESGGGLVQAGGSLRLSCAASGSTFEKNAMGWYRQAPGKEREFVAAISRRGGSTYYADSVKGRFTISRDNAKNTVYLQMNSLKPEDTAVYYCAAQQLTWYSYRGDYWGQGTQVTVSS | high polyreactivity
2 | QVQLVESGGGLVQAGGSLRLSCAASGSTFYYNSMGWYRQAHGKERQLVAAISKSSTRTYYADSVKGRFTISRDNAQNTVYLQMNSLKPEDTAVYYCAARQWRRSRFDYWGQGTQVNVSS | high polyreactivity
3 | QVQLVESGGGLVQAGGSLRLSCAASGLTFPRYAMGWYRQAPGIERELVAAISYRGSRTYYADSVKGRFTISRDNAKNTVYLQMNSLKPEDSAVYYCNKVRPGYGVTYLVGYWGQGTQVTVSS | high polyreactivity
4 | QVQLVESAGCLVQAGGSLRLSCAASGSIISAYARGWYRQAPGKERQLVAAITRSGGSTYYADSVKGRFTISRDYAKITVYLQMNSLKPEDTAVYYCAARSYVHVFVRMYYWGQGTQVTVSS | high polyreactivity
5 | QVQLVESGGGLVQAGGSLRLSCAASGTTFVYYAMVWYRQAPGKERYLVAAITWNGGSTYYADSVKGRFTISRDNAKNTVYFQMNSLKPEDTAVYYCNAAFRAGAVYGYYWGQGTQVTVSS | high polyreactivity
6 | QVQLVESGGGLVQAGRSLRLSCAASGFIFGHNAMGWSRQAPGKERELFAAIRSRGGSTYYADSVKGRFTISRDNAKNTVYLQMNSLKREDTAVYYCAADGAVVSSSRKFVYWGQGTQVTVSS | low polyreactivity
7 | QVQLVESGGGLVQAGGSLRLSCAASGSIFIYYAMGWYRQAPGKERELVAGININGGSTYYADSVKGRFTISRDNAKNTVYLQMNSLKPEDTAVYYCAADELWWTYWDFVTNWYQRDYWGQGTQVTVSS | low polyreactivity
8 | QVHLLESGGGLVQAGGSLRLSCAASGRTFYDYTMGWYRQAPGKERELVAVISKRGGSTYYADSVKGRFTISRDNAKNTVYLQMNSLKPEDTAVYYCAAKSGRNVYQKVDYWGQGTQVTVSS | high polyreactivity
9 | QHQLEESGGGLVQAGGSLRLSFAAYGFIFGRYTMGWYRQAPVKERELVAAISSRGGSTYYADSVKGGFTISRDYAKYTVYLQMNSLNPEDTAVYSCNALRRPSSEGRDYWGQGTQVTVSS | high polyreactivity
10 | QVQLVESGGGLVQEGGSLRVSCAASGRIFANNAMAGYRQAPGKERELLAAISWSGGNTYYADSVKGRFTISRDNAKNTVYVQMNSLKPDDTAVYYCGAGSPRYSNNYVSYKGWDYSCGQGTQVTVSS | high polyreactivity
11 | QVQLVETGGGLVQAGGSLRLSCAASGRIFVVYDMGWYRQAPGKERELVANITISGGRTYYADSVKGRFTISRDNAKNTVYLQMNSLKPEDTAVYYCAATSGALYYGYEYWGQGTQVTVSS | low polyreactivity
12 | QVQLVESGGGLVQAGGSLRLSCAASGFIFWKNAMGWYRQAPGKERELVAAISWSGGRTYYADSVKGRFTISRDNAKNTVYLQMNSLKPEDTAVYYCNAAGRYKPGAPYDYWGQGTQVTVSS | low polyreactivity
13 | QVQLVESGGGLLQAGGSLRLSCAASGRTYYTNAMGWYRQAPGKERELVAAISRGGGRTYYADSVKGRFTISRDNAMNSVYLQMNSLKPEDTAVYYCAASPYQGQGREYYYWGQGTQVTESS | high polyreactivity
14 | QVQLVESCGGLVQAGGSLRLSCAASGRIFRDYAMGWYRQAPGKERELVATITRSGGRTYYADSVKGRFTISRDNAKNTVFLQMNSLKPEDTSVYYCAATYWTYPYHYQYKYDYWGQGTQVTVSS | high polyreactivity
15 | QVQLVGSGGGLVQAGGSLRLSCAASGIIFQLYAMGWYRQAPGKERELVAAITSTGTTNYADSVKGRFTISRDNAKNTVYLQMNCLKPEDTAVYYCNADVGYWWGYYGYDYWGQGTQVTVSS | high polyreactivity
16 | QVQLVESGGGLVQAGGSLRLSCAASGRIFAHNAMGWYRQPPGKARELVAAITWSGGSTYYADSVKGRFTISRDNAKKTVYLQMNSLNPEDTAVYYCNNDSHGHLYNYWGQGTQVCVSS | low polyreactivity
17 | QVQLVESGGGLVQAGGSLRLTCAASGSTFYPYAMGWYRQAPGKERELVAAISSGGSTYYADSVKGRFTISRDNAKNSVYLQMNSLKPEDTAVYYCAADFYYAYYWGQGTQVTVSS | low polyreactivity
18 | QVQLVESGGGLVQAGGSLRLSCAASGFILRYNAMGWYRQAPGKERELVAAISYTGDRTYYADSVKGRFTISRDNAKNTVYLQMNSLKPEDTAVYYCNAGKGQRALVRIGSKLMYYWGQGTQVTVSS | high polyreactivity
19 | QVQLVESGGGLVQAGGSLRLSCAASGSNFRLYAMGWYRHAPGKERELVATISGSAGRTYYADSVKGRFTISRDYAKNTVYLQMNSLKPEDTAVYYCAARWYQEYFWGQGTQVTVSS | high polyreactivity
20 | QVQLVESGGGLVQAGGSLRLSCAASGSTFGVYAMGWYREAPGKERELVAAINKSGTRTYYADSVKGRFTISRDNAKNTVYLQMNSLKPEDTAVYYCAADQGTYGYGGFYYWGQGTQVTVSS | high polyreactivity
21 | QVQLVESGGGLVQAGGSLRLSCAASGITFYRYDMGWYRQAPGKERELVAAISTRGGSTYYADSVKGRFTISRDNAKNTVYLQMNSLKPEDTAVYYCAKERVGTSLPFKDYYWGQGTQVTVSS | low polyreactivity
22 | QVQLVESGGGLVQAGGSLRLSCAASGFTFSLNTMGWYRQAPGKEREFVAAITYRTGRTYYADSVKGRFTISRDNAKNTVYLQMNSLKPDDTAVYYCNAGEHTRWYYWTPTYTTVDYWGLGTQVTVSS | low polyreactivity

Row | Sequence | polyreactivity (PSR sort gate)
23 | QVQLVESGGGLVQAGGSLRLSCAASGLTFRAYAMGWYRLAPGKERELVAAITWSGTRTYYADSVKGRFTISRDNAKNTVYLQMNSLKPEDTAVYYCARGHTKVKYDYWGQGTQVTVSS | low polyreactivity
24 | QVQLVESGGGLVQAGGSLRLSCAASGFTFSKYAMGWYRQAPGKERELVAAITSGDDTNYADSVKGRFTISRDNAKNTVYLQMNSLKPEDTAVYYCNAEYTVYYSYWAIGVDYWGQGTQVTVSS | high polyreactivity
25 | QVQLVESGGGLVKAGCSLRLSCAASGRTFGTYAMGWYRQAPGKERELVAAISSGGSTYADSVKGRFTISRDNAMNTVYLQMKSLKPEDTAVYYCTTRYPMGGTYTRYPLKGDYWGQGTQVTVSS | high polyreactivity
26 | QVQLVESGGGLVQAGGSLRLSCAASGRTLKRNAMGWYRQAPGKERELVAAISFRVTNTYYADSVKGRFTISRDNAKNTVYLQMNSLKPEDTAVYYCAVPDSRFYSPRRVSPHDYWGQGTQVTVSS | high polyreactivity
27 | QDQLVESGGGLVQAGGSLRLSCAASGRTLVGNAMGLYRQAHGKERELVAAISLSDDITYYADSVKGRFTISRDNAKKTFYLQMNSLKPEDTAVYYCAAVYPGDSDFLGSYEESDSWGQGTQVTVSS | low polyreactivity
28 | QVQLVESGGGLVHAGGSLRLTCAASGSTFGKYAMGWYRQAPGKERELVAAITWSGASTFYADSVKGRFTISRDNAKNTVYLQMNSMKPEDTAGYYCAARSFKSYYIFDYWGQGTQVTVSS | low polyreactivity
29 | QVQLVESGGGLVQAGGSLRLSCAASGNIFANAMGWYRQAPGKERELVAAISRSGGSTYYADSVKGRFTISRDNAKNTVYLQMNSLKPEDTAVYYCAARTTRGPTFGYWGQGTQVTVSS | high polyreactivity
30 | QVQLVESGGGLVQAGGSLRLSCAASGSTFPDNAMGWYRQAPGKERELVAAISWSGGSTNYADSVKGRFTISRDNAKNTVYLQMNSLKPEDTAVYYCNADDASHYYFRDEYWGLGTQVTVSS | low polyreactivity
31 | QVQLVESGGGLVQAGGSLRLSCAASRFTFLTNAMGWYRKAPGTERELVAAISSGGNTNYADSVKGRFTISRDNAKNTVYLQMNSLKPEDTAVYYCAADNDYLSSQVSYDYWGQGTQVTVSS | low polyreactivity
32 | QVQLVESGGGLVQAGGSLRLSCAASGSIFYRNDMGWYRQAPGKERELVAAITWSGVNTYYADSVKGRFTISRDNAKNTVYLQMNSLKPEDTAVYYCAVPSRYWLNRGFDYWGQGTQVTVSS | low polyreactivity
33 | QVQLVESGGGLVQAGGSLRLSCAASGNTFGNYGKGWYRQAPGKEREFVAAITSRGTSTYYADSVKGRFTISRDNAKNTVYLQMNSLKPEDTAVYYCNARPRYKYPRYDYWGQGTQVTVSS | high polyreactivity
34 | QVQLVESGGGLVQAGGSLRLSCADSGFTFCSYTMGWYRQAPGKERELVAAITGGGNTKYADSVKGRFTISRDNAKNTFYLQMISLKPEDSAVYYCARLSRYKSYYTSRFDYWGQGNQVTVSS | high polyreactivity
35 | QVQLVESRGGLVQAGGSLRLSCAASGFTLPANGMGWYRQAPGKERELVAAISFIAGSTYYADSVKGRFTISRDNEKNTVYFQMNSLKPEDTAVYYSATQFPPSSIYDYWGQGTQVTVSS | low polyreactivity
36 | QVQLVESGGGLVQAGGSLRLSCAASGFTFLAYAMGWYRQAPGQERELVAAINSSDGTTHYADSVKGRFTISRDTAKNTVYLQMNSLKPEDTAVYYCAVSQVRTGEGYHYWGQGTQVTVSS | low polyreactivity
37 | QGQRVESGGVLVQAGGSLRLRCAASGSTFSRYDMGWYRQAPGKERELVATITRAGRTYYADSVKGRFTISRDNAKNTVYLQMNSLIPEDTAVYYCAAELYYWTYVRFDYWGQGTQVTVSS | low polyreactivity
38 | QVQLVESGGGLVQAGGSLRLSCAASGRISNDYAMGWYRQAPGKDRELVATITFSGGDTYYADSVKGRFTISRDHAKNTVYLQMNSLKPEDTAVYYCAASKWPSYSGGWWRLLFDYWGQGTQVTVSS | low polyreactivity
39 | QVQLVESGGGLVQAGGSLRLSCAASGLTFGGNAMGWYRQAPGKERELVAAISWNGGRTYYADSVKGRFTISRDNAKNTVDLQMNSLKPEDTAVYYCNTPVFSKSSRKYYYWGQGTQVTVSS | high polyreactivity
40 | QVQLVESGGGLVQAGGSLRLSCAASGRTFTKYAMGWYRQAPGKERELVAAISRSGGSSYYADSAPGRFTISRDNAKNTVYLQMNSLKPEDTAVYYCAARGQYRYSFGDYSWGQGTQVTVSS | high polyreactivity
41 | QVQLVESGGGLVQAGGSVRLSCAASGRIFRYYMGWYRQAPGKEREFVAAITTRGGRTYYADSVKGRFTISRDNAKNTVSLQMNSLKPEDTAVYYCAAGYNGAIIALRAYDYWGQGTQVTVSS | high polyreactivity
42 | QVQLVESGGGLVQAGGSLRLSCAASGSTFGWYAMGWYRQAPGKERELVAAISTSGNTYYADSVKGRFTISRDNAKNTVYLHMNRLKPEDTAVSYCAKYVNPDHDYWGQGTQVTVSS | low polyreactivity
43 | QVQLVESGGGLVQAGGSLRLSCAASGNSFYSYAMGRYRQAPGKERELVAAITIDGSTTYADSVKGRFTISRDNAKNTVYLQMNSLKPEDTAVSYCNADGFTSDPYDSDDWGQGTLVTVSS | low polyreactivity
